# Data as given in the supplement of paper PMC11780869.
# Tested on: Bacillus subtilis
# Assay: cleaved RNA product abundance (RNA/gDNA barcode ratio) relative to median wild-type variant (ratio to wild type); higher = more accumulation of the downstream cleavage product
# Summary of the method: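 Cleaved product abundance is expressed as the RNA:gDNA barcode ratio per construct, scaled to the median construct carrying the unmutated site. The constructs were barcoded, mutagenized RNase Y cleavage-site windows in truncated aprE or tetM reporter mRNAs integrated into the B. subtilis chromosome. Cultures grew in LB at 37°C from OD600 0.0003 to 0.3 before cleaved RNA was gel-selected and barcode-sequenced.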
# [1] = experiment (reporter, strain, medium): exp 8a: truncated aprE reporter, strain BJT201 with 2% xylose (RNase J1 expressed), cleavage site: glnRA (positions -5 to +31 mutated)
# [2] = experiment (reporter, strain, medium): exp 2b: truncated aprE reporter, strain BJT200, cleavage site: cggR-gapA (positions -7 to +36 mutated)
# [3] = experiment (reporter, strain, medium): exp 4a: truncated aprE reporter, strain BJT201 with 2% xylose (RNase J1 expressed), cleavage site: cggR-gapA (positions -7 to +36 mutated)
Sequence,cleaved RNA product abundance [1],cleaved RNA product abundance [2],cleaved RNA product abundance [3],other results
CGACATGTCCCGCTTCTTTCATTAATCAGTTAGCAACTGTTTTGCTATATACATATACCTTTTAAGAGGAGGAAT,1.04,–,–,–
ACAGACGAAGGAGCCGCAAAGAAGTTATTAACGGATCAATAATCCCTCAATATAAATATCTCTCACTTATTTAAA,–,0.0668,0.104,–
ACAGACGAAGGAGCCGCAAAGAAGTTATTAACGGATGAATACTCCCTCAATATAAATATCTCTCACTTATTTAAA,–,–,0.133,–
CGACATGTCCCGCTTCTTTCATTACGCCGTTAGCAACTGTTTTGCTATATACATTTACCTTTTAAGAGGAGGAAT,1.03,–,–,–
ACAGACGAAGGAGCCGCAAAGAAGTTATTATGGGATGAATAATCCCTCAATATCAATATCTCTCACTTATTTAAA,–,–,0.0948,–
ACAGACGAAGGAGCCGCAAAGAAGTTATTAAGGTATGAATAATCCTTCAATATAAATATCTCTCACTTATTTAAA,–,0.145,0.126,–
CGACATGTCCCGCTTCTTTCATTAATCCGTTACCAACTGTTTTGCTATATACATTTACCTTTTAAGAGGAGGAAT,0.255,–,–,–
ACAGACGAAGGAGCCGCAAAGAAGTTATTAAGGGATGAATAATCCTTCAATGTAAATATCTCTCACTTATTTAAA,–,–,0.167,–
CGACATGTCCCGCTTCTTTCATTAATCCGTTAGCAACTGTTTTGCTATATACATTAACCTTTTAAGAGGAGGAAT,1.37,–,–,–
ACAGACGAAGGAGCCGCAAAGAAGTTATTAAGGGATGAATAATCCCTAAATATAAAAATCTCTCACTTATTTAAA,–,0.46,0.622,–
CGACATGTCCCGCTTCTTTCATTAATTCGTTAGCAACTGTTTTGCTATACACATTTACCTTTTAAGAGGAGGAAT,0.585,–,–,–
ACAGACGAAGGAGCCGCAAAGAAGTTATTAAGTAATGAATAATCCCTCAATATAAATATCTCTCACTTATTTAAA,–,0.102,0.099,–
ACAGACGAAGGAGCCGCAAGGAAGTTATTAAGGGATGAATCATCCCTCAATATAAATATCTCTCACTTATTTAAA,–,0.824,0.633,–
ACAGACGAAGGAGCCGCAAAGAAGTTATAAAGGGATGAATAATCCCTCTATATAAATATCTCTCACTTATTTAAA,–,–,0.941,–
ACAGACGAAGGAGCCGCAAAGAAGTTATTAAAGGATGAATAATCCCTGAATATAAATATCTCTCACTTATTTAAA,–,0.133,0.171,–
CGACATGTCCCGCTTCTTTCATTAATCCTCTAGCAACTGTTTTGCTATATACATTTACCTTTTAAGAGGAGGAAT,0.492,–,–,–
ACAGACGAAGGAGCCGCAAAGAAGTTATTAAGGGATGAATAATCACTCAAGATAAATATCTCTCACTTATTTAAA,–,0.0892,–,–
CGACATGTCCCGCTTCTTTCATTAATCCGTTTGCAACTGTTTTGCTATATACATTTACCATTTAAGAGGAGGAAT,0.88,–,–,–
CGACATGTCCCGCTTCTTTCATTAATCCGTTAGCAACTGTTATGCTATATACAATTACCTTTTAAGAGGAGGAAT,1.02,–,–,–
ACAGACGAAGGAGCCGCAAAGAAGTTATTAAGAGATGAATAATCCCTCAATATAAATATATCTCACTTATTTAAA,–,–,0.193,–

Sequence,cleaved RNA product abundance [1],cleaved RNA product abundance [2],cleaved RNA product abundance [3],other results
CGACATGTCCCGCTTCTTTCATTAATCCGTTAGCAACTGTTTTGCTTTATAAATTTACCTTTTAAGAGGAGGAAT,0.385,–,–,–
CGACATGTCCCGCTTCTTTCATTAATCCGTTAGCAACTGTTTGACTATATACATTTACCTTTTAAGAGGAGGAAT,0.605,–,–,–
ACAGACGAAGGAGCCGCAAAGAAGTTATTATGGGATGAATAATCCCTCTATATAAATATCTCTCACTTATTTAAA,–,–,0.223,–
ACAGACGAAGGAGCCGCAAAGAAGTTATTAAGGGATGAATAATCCCTCCACATAAATATCTCTCACTTATTTAAA,–,0.108,–,–
ACAGACGAAGGAGCCGCAAAGATTTTATTAAGGGATGAATAATCCCTCAATATAAATATCTCTCACTTATTTAAA,–,1.07,0.974,–
ACAGACGAAGGAGCCGCAAAGAAATTATTAAGGGATGAATAATCCCTCAAAATAAATATCTCTCACTTATTTAAA,–,0.257,0.365,–
CGACATGTCCCGCTTCTTTCATTAATCCGTTATCGACTGTTTTGCTATATACATTTACCTTTTAAGAGGAGGAAT,0.257,–,–,–
ACAGACGAAGGAGCCGCAAAGAAGTTATTAAGGGATGAATAATCACTCAATATTAATATCTCTCACTTATTTAAA,–,–,0.0358,–
ACAGACGAAGGAGCCGCAAAGAAGTTATTAAGGGATGATAAATCCCTCAATATAAATATCTCTCACTTATTTAAA,–,0.648,0.853,–
CGACATGTCCCGCTTCTTTCATTAATCCGTTAGCAACTGTTTTGCTATATACATTTAACGTTTAAGAGGAGGAAT,1.13,–,–,–
ACAGACGAAGGAGCCGCAAATAAGTTATTAAGTGATGAATAATCCCTCAATATAAATATCTCTCACTTATTTAAA,–,0.109,0.107,–
ACAGACGAAGGAGCCGCAAAGAAGTTATTAAGGGATGGATAATCCCTCAATATAAATATCTCTCACTTATTTAAA,–,0.623,0.884,"cleaved RNA product abundance (experiment (reporter, strain, medium): exp 6: tetM reporter, strain 168, cleavage site: cggR-gapA (positions -7 to +36 mutated)): 0.969"
ACAGACGAAGGAGCCGCAAAGAAGTTATTAAAGGATGAATAATCCCTCAATATAATTATCTCTCACTTATTTAAA,–,–,0.161,–
ACAGACGAAGGAGCCGCAAAGAAGTTATTAATGGATGAATTATCCCTCAATATAAATATCTCTCACTTATTTAAA,–,0.112,0.0827,–
CGACATGTCCCGCTTCTTTCATTAATCTGTTAGCAACTGTTTTGCTTTATACATTTACCTTTTAAGAGGAGGAAT,0.247,–,–,–
CGACATGTCCCGCTTCTTTCATTAATCCGTTATCAACTATTTTGCTATATACATTTACCTTTTAAGAGGAGGAAT,0.276,–,–,–
ACAGACGAAGGAGCCGCAAAGAAGTTATCAAGGGATGAATAATACCTCAATATAAATATCTCTCACTTATTTAAA,–,0.149,0.132,–
ACAGACGAAGGAGCCGCAAAGAAGTGATTAAGGGATGAATAATCCCTAAATATAAATATCTCTCACTTATTTAAA,–,–,0.388,–
ACAGACGAAGGAGCCGCAAAGAAGTTATTAAGGGACGAATAATCCATCAATATAAATATCTCTCACTTATTTAAA,–,–,0.0728,–
ACAGACGAAGGAGCCGCAAATAAGTTATTAAGGGATGAATAATCCCTCAATATAAACATCTCTCACTTATTTAAA,–,0.822,0.822,–

Sequence,cleaved RNA product abundance [1],cleaved RNA product abundance [2],cleaved RNA product abundance [3],other results
ACAGACGAAGGAGCCGCAAAGAAGTTATTAAGGGATGAATAATCCTCAATATAAATATCTCTCACTTATTTAAAG,–,0.205,0.309,–
ACAGACGAAGGAGCCGCAAAAGAAGTTATTAAGGGATGAATAATCCCTCAATATAAATATCTCTCACTTATTTAA,–,–,1.06,–
ACAGACGAAGGAGCCGCAAAGAAGTTATTAATGGATGAATAAACCCTCAATATAAATATCTCTCACTTATTTAAA,–,0.0999,0.107,–
ACAGACGAAGGAGCCGCAAAGAAGTTATTAAGGGATGAAAAATCCCTCAATTTAAATATCTCTCACTTATTTAAA,–,0.2,–,–
ACAGACGAAGGAGCCGCAAAGAAGTTATTAAGGGATGAATAATACCTTAATATAAATATCTCTCACTTATTTAAA,–,–,0.424,–
ACAGACGAAGGAGCCGCAAAGAAGTTATTAAGGGATCAATAACCCCTCAATATAAATATCTCTCACTTATTTAAA,–,–,0.561,–
ACAGACGAAGGAGCCGCAAAGAAGTTATTAGGGGATGAATAATCCTTCAATATAAATATCTCTCACTTATTTAAA,–,–,0.636,–
ACAGACGAAGGAGCCGCCAAGAAGTTATTAAGGGATGAATAATCCCTCACTATAAATATCTCTCACTTATTTAAA,–,0.191,–,–
ACAGACGAAGGAGCCGCAGAGAAGTTATTAAGCGATGAATAATCCCTCAATATAAATATCTCTCACTTATTTAAA,–,–,0.171,–
ACAGACGAAGGAGCCGCAACGAAGTTATTAAGGGATGTATAATCCCTCAATATAAATATCTCTCACTTATTTAAA,–,–,0.656,–
ACAGACGAAGGAGCCGCAAAGAAGTTATTAAGGGATGAAAAATCCCTCAATATTAATATCTCTCACTTATTTAAA,–,0.199,0.157,–
ACAGACGAAGGAGCCGCAAAAAAGTTATTAAGGGATGAATAATTCCTCTATATAAATATCTCTCACTTATTTAAA,–,–,0.264,–
ACAGACGAAGGAGCCGCAAAGAAGTTATTAAGGGATGACTAATCCATCAATATAAATATCTCTCACTTATTTAAA,–,0.112,0.154,–
CGACATGTCCCGCTTCTTTCATTAATCCGTTAGCAACTGTTTTGCTCTATACATTTACCTTTTAAGAGGAGGAAT,0.265,–,–,–
ACAGACGAAGGAGCCGCAAAAAACTTATTAAGGGATGAATAATCCCTCAATATAAATATCTCTCACTTATTTAAA,–,–,0.479,–
CGACATGTCCCGCTTCTTTCATTATTCCGTTAGCAACTGTTTTGCTATATACATTGACCTTTTAAGAGGAGGAAT,1.55,–,–,–
CGACATGTCCCGCTTCTTTCATTAATCCTTTAGCAACTGTTTTACTATATACATTTACCTTTTAAGAGGAGGAAT,0.513,–,–,–
CGACATGTCCCGCTTCTTTCATTATTCCGTTAGCAACTGTTTTGCTATATACCTTTACCTTTTAAGAGGAGGAAT,0.383,–,–,–
ACAGACGAAGGAGCCGCAAAAAAGTTATTAAGCGATGAATAATCCCTCAATATAAATATCTCTCACTTATTTAAA,–,0.091,0.123,–
